In US7943358B2, “Polymerase enhancing factor (PEF) extracts, PEF protein complexes, isolated PEF protein, and methods for purifying and identifying” (Agilent Technologies, Inc., priority 1997, dated 2011):

Legend:
Assay type in all cases: biochemical
[1] = Reverse phase HPLC analysis, reactivity with other nucleotides
Procedure: (§1) The similarity of P45 to dCTP deaminases prompted us to test whether dCTP or other nucleotide triphosphates were substrates of PEF/P45. PEF was incubated with dCTP or dUTP and the reaction products were separated by reverse phase HPLC. Reaction mixtures (50 μl) containing 1× cloned Pfu polymerase buffer, 10 mM dCTP or dUTP, and 700 ng PEF (or 5 μl of cloned p45 (˜100 ng) or nothing (neg. control)) were incubated at 72° C. for 1 hour. The samples were injected on a […] Waters Delta-pak C-18 column (300 angstrom/15 μm), equilibrated in 50 mM triethylammonium acetate, pH (7.0) (A). Products were eluted with acetonitrile (B) at 2 ml/min. using the following gradient: 0% B for 5 minutes, 0-10% B over 20 minutes. Absorbence of the eluate was monitored with a photodiode array detector, and peak areas were integrated at 260 nm.
In addition to dUTP, dCTP was also found to serve as a substrate for PEF (FIG. 17). The product of the PEF+dCTP reaction appeared to be dCMP, based upon its retention time and absorbence maxima. Although PEF utilizes dCTP, dUTP is the preferred substrate of PEF/P45. In the example shown, only 16.6% of the dCTP was converted in 1 hour under the same conditions which converted 100% dUTP (FIG. 17, panel B). […] No reactivity with PEF was detected for the following nucleotides: dGTP, dATP, dTTP, dCMP, dUMP, and rUTP under the conditions used.

[2] = Pi detection after reaction with dUTP (method of Heinonen and Lahti); details: 900 or 1800 ng PEF, 5 mM dUTP, 1 hour at 72° C.
Procedure: We tested whether inorganic pyrophosphate (PPi) or inorganic phosphate (Pi) was generated during the PEF-catalyzed conversion of dUTP to dUMP (FIG. 16). To assess whether Pi was produced, 900 or 1800 ng of PEF was incubated in the presence of 5 mM dUTP in 1× cloned Pfu polymerase buffer for 1 hour at 72° C. The reaction mixture was subsequently analyzed for the presence of Pi using the method of Heinonen and Lahti (Heinonen; J. K. and Lahti, R. J. (1981) Anal. Biochem. 113: 313-317). […] One hundred percent (100%) conversion corresponds to the production of 500 nmol of Pi, if Pi is a product of the reaction. […] The assay for Pi was sensitive enough to detect as little as about 50 nmoles of Pi.

[3] = Reverse phase HPLC analysis of dUTP conversion; details: 72° C.
Procedure: as §1
In a separate Western assay, samples from Thermus thermophilis were run out on an SDS-PAGE gel and probed with the rP45 antisera. […] The PEF as dUTPase activity in these samples was further confirmed by a dUTP conversion assay employing reverse phase HPLC.

Pfu DNA polymerase = biological target: T1, Pfu DNA polymerase (Pyrococcus furiosus, UniProt P61875); assay: 0.9 kb α1-antitrypsin PCR in absence or presence of dUTP
T1 sequence (P61875 1-775): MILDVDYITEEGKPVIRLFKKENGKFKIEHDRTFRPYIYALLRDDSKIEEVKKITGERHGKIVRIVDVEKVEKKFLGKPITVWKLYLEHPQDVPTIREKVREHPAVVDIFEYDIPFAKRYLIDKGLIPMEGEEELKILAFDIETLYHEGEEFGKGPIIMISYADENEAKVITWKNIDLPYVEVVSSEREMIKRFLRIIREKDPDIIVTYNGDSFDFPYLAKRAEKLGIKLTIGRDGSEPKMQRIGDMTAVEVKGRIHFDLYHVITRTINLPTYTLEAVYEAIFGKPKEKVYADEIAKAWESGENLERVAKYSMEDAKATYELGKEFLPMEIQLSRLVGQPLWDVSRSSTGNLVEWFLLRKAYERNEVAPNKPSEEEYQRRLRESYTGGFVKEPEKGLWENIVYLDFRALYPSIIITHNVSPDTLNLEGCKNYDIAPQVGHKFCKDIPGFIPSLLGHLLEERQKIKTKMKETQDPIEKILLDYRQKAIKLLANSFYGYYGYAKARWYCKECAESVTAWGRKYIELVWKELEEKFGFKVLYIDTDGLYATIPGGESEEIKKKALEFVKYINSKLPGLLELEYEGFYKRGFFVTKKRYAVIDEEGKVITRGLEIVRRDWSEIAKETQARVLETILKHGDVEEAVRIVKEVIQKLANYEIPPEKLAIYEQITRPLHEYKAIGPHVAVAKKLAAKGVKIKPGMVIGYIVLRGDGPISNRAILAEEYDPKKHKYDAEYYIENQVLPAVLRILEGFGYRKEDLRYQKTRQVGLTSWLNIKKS
Procedure: A relatively small (0.9 kb) fragment of the human α1-antitrypsin gene was amplified in the absence or presence of dUTP. PCR reaction mixtures contained the following (in a 100 μl volume): 1× Cloned Pfu polymerase buffer; 200 μM each, dCTP, dGTP, dATP; 200 ng oligo F91-23 (100 ng/μl); 200 ng oligo R980-23 (100 ng/μl); 125 ng Human genomic DNA; 2.5 units Pfu DNA polymerase; 200 μM total of (dTTP and dUTP) or (dTTP+PEF generated dUMP).
PCR cycling was carried out as follows: 95° C. for 1 minute (1 cycle); 95° C. for 1 minute—58° C. for 1 minute—72° C. for 2 minutes (30 cycles).
Seven ng of PEF can reverse the inhibition caused by as much as 20 μM dUTP (data not shown). The preferred amount of PEF or P45 used in a particular reaction can be optimized according to the principles provided here or by methods for quantifying amplification reactions known in the art.

[4] = PCR cycling of dCTP in the presence of PEF or Pfu DNA polymerase, HPLC; details: 10 mM dCTP, 0.5 ng PEF/μl

B1: PEF: polymerase enhancing factor complex purified from Pyrococcus furiosus; predominant components P50 and P45 (protein)
chain 1: MLHHVKLIYATKSRKLVGKKIVXXXPGSIAALDVKACEGLIRHGAEVHAVMSEAATKIIHPYAWNLPTGNPVITEITGFIEHVELAGEHENKADLILVCPATANTISKIACGIDDTPVTTVVTTAFPHIPIMIAPAMHETMYRHPIVRENIERLKKLGVEFIGPRIEEGRAKVASIDEIVYRVIKKLHKKTLEGKRVLVTAGATREYIDPIRFITNASSGKMGVALAEEADFRGAVTLIRTKGSVKAFRIRKIKLKVETVEEMLSAIENELRSKKYDVVIMAAAVSDFRPKIKAEGKIKSGRSITIELVPXNPKIIDRIKEIQPNVFLVGFKAETSKEKLIEEGKRQIERAKADLVVGNTLEAFGSEENQVVLIGRDFTKELPKMKKRELAERIWDEIEKXLS
chain 2: MLLPDWKIRKEILIEPFSEESLQPAGYDLRVGREAFVKGKLIDVEKEGKVVIPPREYALILTLERIKLPDDVMGDMKIRSSLAREGVIGSFAWVDPGWDGNLTLMLYNASNEPVELRYGERFVQIAFIRLEGPARNPYRGNYQGSTRLAFSKRKKL
modifications: not fully specified; X: residue not identified in the source
notes: polymerase enhancing factor complex purified from Pyrococcus furiosus; predominant components P50 and P45
- reactivity with dGTP, dATP, dTTP, dCMP, dUMP, rUTP [1]: No reactivity
- Pi formed during reaction with dUTP [2]: no Pi was detected
- dUTP peak after incubation ([3]; 10 mM dUTP, one hour): 0.1 % total peak area
- new peak eluting at 4.400 minutes (dUMP) ([3]; 10 mM dUTP, one hour): 98 % total peak area
- dUTP converted ([3]; 1 hour, 700 ng PEF): 100%
- prevention of dUTP inhibition (Pfu DNA polymerase; added to PCR reactions containing dUTP): completely prevented
- dUTP concentration whose inhibition is reversed (Pfu DNA polymerase; seven ng of PEF, as much as, data not shown): 20 µM
- dCDP after PCR cycling in presence of PEF [4]: 19%
- dCMP after PCR cycling in presence of PEF [4]: 8%
- dCTP after PCR cycling in presence of PEF [4]: 73%
- dUTP after PCR cycling in presence of PEF [4]: no detectable dUTP
